Target: C9-tagged CCR5 (human) (UniProt P51681)
Experiment: SPR

Chain of UniProt P51681 (P51681 whole entry): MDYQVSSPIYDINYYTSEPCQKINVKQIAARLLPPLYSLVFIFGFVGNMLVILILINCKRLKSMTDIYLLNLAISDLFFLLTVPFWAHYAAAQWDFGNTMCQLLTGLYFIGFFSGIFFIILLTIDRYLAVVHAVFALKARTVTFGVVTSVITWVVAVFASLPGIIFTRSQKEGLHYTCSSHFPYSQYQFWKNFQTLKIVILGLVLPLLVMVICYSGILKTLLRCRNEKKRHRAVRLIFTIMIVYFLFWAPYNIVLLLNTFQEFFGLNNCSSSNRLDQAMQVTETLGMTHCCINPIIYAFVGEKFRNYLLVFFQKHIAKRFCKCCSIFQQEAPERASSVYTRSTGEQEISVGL

Substance: LukE (leukotoxin ED subunit E), His-tagged (natural protein)
- Kd: 0.0396 µM

Source: PMC3536884
